In paper PMC3448853:

What was measured:
Assay in all cases: SEC
[1] = target: aglycosylated Fc5 (E382V/M428I) variant of human IgG1 Fc (human)
[2] = target: aglycosylated human IgG1 Fc (wild type), E. coli expressed (human)
[3] = target: glycosylated human Fc (wild type), Bethyl Laboratories (human)

aglycosylated Fc5 (E382V/M428I) variant of human IgG1 Fc (domain or fragment)
stoichiometry N [1]: 2

aglycosylated human IgG1 Fc (wild type), E. coli expressed (domain or fragment)
stoichiometry N [2]: 2

glycosylated human Fc (wild type), Bethyl Laboratories (domain or fragment)
stoichiometry N [3]: 2
